In the nanobody polyreactivity screen of Harvey et al. (2022):

test: yeast display, Sf9 membrane polyspecificity reagent, FACS + sequencing; frameworks hold sequencing errors
Outline: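 Galactose-induced (36–48 hours) yeast carrying a synthetic nanobody display library were exposed to 10% biotinylated, detergent-solubilized Sf9 membrane reagent at 4 °C for 1 hour. FACS followed streptavidin microbead enrichment, using low and high (top ~1%) gates for expression (anti-HA) and reagent binding (streptavidin). Colony PCR, MiSeq 2 × 250 sequencing and CDR-length filtering followed. Labels for polyreactivity reflect the gate of origin.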

| Sequence | polyreactivity (PSR sort gate) |
| --- | --- |
| QVQLVESGVGLVQAGGSLRLSCAASGRIFSRYTMGWYRQAPGKERELVAAIRYSGGLTYYADSVKGRFTISRDNAKNTVYLQMNSLKPEDTAVYYCATQVYLGYDKLYGYWGQGTQVTVSS | high polyreactivity |
| QVQLVESGVGLVQAGGSLRLSCAASGRIFTYYAMGWYRQAPGKERELVAVISSVGGTYYADSVKGRFTISRDNAKNTVYLQMNSLKPEDTAVYYCAVGKIWSRRSSTSRFGYWGQGTQVTVSS | high polyreactivity |
| QVQLVESGVGLVQAGGSLRLSCAASGRSFGPYAMGWYSQAPGKERELVAAISSSGGSTYYADSVKGRFTISRDNAKNNVYLQMNSLKPEDTAVYYCATYFARGYNSWGQGTQVTVSS | high polyreactivity |
| QVQLVESGVGLVQAGGSLRLSCAASGRTFGSNAMGWYRQAPGKERELVAAISRVGSTYYADSVKGRFTISRDNAKNTVYLQMNSLKPEDTAVYYCPYDYWGQGTQVTVSS | low polyreactivity |
| QVQLVESGVGLVQAGGSLRLSCAASGRTFNSYAMGWYRQAPGKERELVATISSRGGNTFYADSLKGRCTISRDNAKNTVYLQMNSLKPEDTAVYYCAARRGVRKYPSAGYEYWGQGTQVTVSS | high polyreactivity |
| QVQLVESGVGLVQAGGSLRLSCAASGRTFSRNAMGWYRQSPGKERELVATISRGGGITFYADSVKGRFTISRDNAKNNVYLQMKSLKPEDTAVYYCNADVRYVGLRRIVDYWGLGTQVTVSS | high polyreactivity |
| QVQLVESGVGLVQAGGSLRLSCAASGRTFWSYAMGLYRQAPGKERELVAAISRGGSRTYYADSVKGRFTISRDNAKNTVYLQMNSLKPEDTAVYYCAADPTASGHFLGQVDYWGQGTQVTVSS | high polyreactivity |
| QVQLVESGVGLVQAGGSLRLSCAASGSIFDPYAMGWYRQPPGKERELVAAIPYSVGGTTYYADSVKGRFTISRDTAKNTVYLQMNSLKPEHTAVNYCAAEWWGNPFDYWGQGTQVTVST | high polyreactivity |
| QVQLVESGVGLVQAGGSLRLSCAASGSIFGLYAMGCYRQAPGKERELVAAISTSDTSTYYADSVKGRFTISRDNAKNTVYLQMTSLKQEDTAVYYCAADTYDNFDYSGQGTQVTVSS | low polyreactivity |
| QVQLVESGVGLVQAGGSLRLSCAASGSPFRRNALGWYRQAPGKERELVAAITWRGTSTYYADSVKGRFTISRDNAKNTVYLQMNSLIPEDTAVYYFATSKSRLRYDYWGQGTQVTVSS | high polyreactivity |
| QVQLVESGVGLVQAGGSLRLSCAASGSTFRYNAMVWYRQAPGKERELVAAITGSGDRTFYADSVKGRFTISRDNAKNTVYLQMNSLKPVDTAVYYCAARSRYPFSYGYYYWGQGTQVSVSS | high polyreactivity |
| QVQLVESGVGLVQAGGSLRLSCAASGSTFTYYAMGWYRQAPGKESELVAAITASGTSTYYPDSVKGRFTISRDYAKNTVYLQMNSLKPEDTAVYYCAATRFKWTRIYPYYTGQGYNYWGQGTQVTVSS | high polyreactivity |
| QVQLVESGVGLVQAGGSLRLSCAASGSTFWAYAMGWYRQAPGKERELVAAITTGGGRTFYADSVKGRFTISRDNAKNTVYLQMNSLKPEETAVYYFAAVSQSYRMYYWGQGTQVTVSS | low polyreactivity |
| QVQLVESGVGLVQAGGSLRLSCAASGSTFWLYAMGWYRQAPGKERELVASISSRGGSTYYADSVKGRFTISRDNAKNTVYLQMNSLKPEDTAVYYCAAKDIRYDDDYWGQGTQVTVSS | low polyreactivity |
| QVQLVESGVGLVQAGGSLRLSCAASGSTFYQYAIGWYRQAPVKERELVAAISKSGGSTYYADSVKGRFTISRDNAKNTVYLQMNSLKPEDTAVYYCATRWIKGRKMDYWGHGTQVTVSS | high polyreactivity |
| QVQLVESGVGLVQAGGSLRLSCAASGSTLPYYAMGWYRQAHGKERQMVAAITTSGGDTYSADSVKGRFTISRDNAKNTVYLQMNSLKPEDTAVYYCAISYSARSTVRKLFYFAYDYWGQGTQVTVSS | low polyreactivity |
| QVQLVESGVGLVQAGGSLRLSCAASGTTFSQYAMGGYRQAPGKERELVAAIDWSGGSTYYADSVKGRFTISRDNAKNTVYLQMNSLKPVDTAVYYCNTLRFRSFYLYGYWGQGTQVTVSS | high polyreactivity |
| QVQLVESGVGLVQAGGSLRLSCAATGFTFYWYTMGWYIQAPGKERELVAAISASGGRTYYADSVKGRFTISRDNAKNTVYLQMNSLKPEDTAVYYCAARFRTWGNREAGYYWGQGTQVTVSS | high polyreactivity |
| QVQLVESGVGLVQAGGSLRLSCAATGSILSINGMGWYIPAPGKERELVATIDGSDGSTFYADSVKGRFTISRDNAKNTVFLQMNSLNPEDTEVYYCADENFWQTKEYDYWGQGTQVTVSS | low polyreactivity |
| QVQLVESGVGLVQAGGSLRLSCASSGFIFDTYAMGLYRQAPGKERELVAVISSGGSTYYADSVKGRFTISRDNAKNTVYLQMNSLKPEDTAVYYCAADSGYLGIYGDEYSWGQGTQVTVSS | low polyreactivity |
| QVQLVESGVGLVQAGRSLRLSCAASGFTFGAYAMGWYRQAPGKERELVAAITRRGGSTYYADSVKGRFTISRDNAKNTVYLQMNSLKPEDTAVYYCAARRGRVLTKVSGYYSWGQGTQVTVSS | high polyreactivity |

| Sequence | polyreactivity (PSR sort gate) |
| --- | --- |
| QVQLVESGVGLVQAGRSLRLSCAATGIIFRDNARGSNRQAPGKERELVAANSKSGGRTYYADSVKGRFTISRDNAKNTVYLQMNSLKPDDTAVYYCAKASRYWSLYYWGQGTQVTVSS | high polyreactivity |
| QVQLVESGVGLVQARGSLPLSCAASGFIFNTMGWYRQAPGKERELVATISWSDGSTYYADSVKGRFTISRDNAKNTVYLQMNTLKPEDTAVYYCAATTDALVGRPRYDYWGQGTQVTVSS | low polyreactivity |
| QVQLVESGVGLVQAVVSLRISCAASGSNFNYYAMGWYRQAPGKERELVAAISGSGATTYYADSVKGRFTISRDNAKNTVYLQMNSLKPEDTAVYYCATTRRWYIGYDYWGQGTQVTVSS | high polyreactivity |
| QVQLVESGVGLVQGGGSLRLTCAASGYTFPRYTKGWYRQPPGKERELVASINWSGGSTYYADSVKGRFTISRDNAKNNVYLQMNCLKPDDTAVYFCNKAYVSRYDYWGQGSQVTVSS | high polyreactivity |
| QVQLVESLGGLVQAGGSLRLSCAASGITFGWYAMGWYRQAPGQERELVAAISPAGSTYYADSVKGRFTISRDNAKNTVYLQMNSLKPEDTAVYYWRYSAFRFSAMGYWGHGTQVTVSS | high polyreactivity |
| QVQLVESLVGLDQAGGSLRLSCSASGFTIPRYAMGWSRQAHGKESELVAAITSGGSTYYADSVKGRFTISRDNAKNNVYLQMNSLKTEVTAVYFCAADGLCGSRFYSWGLGTQVTVSS | high polyreactivity |
| QVQLVESRGALVQAGGSLRLSCAASGSTIDAYAMGWYRQAPGKERELVAAITRSGGRTYYADSVKGRFTISRDYAKNTVFLQMNSLKPVDTAVFYCNAYCVYVRGEFWGQGTQVTVSS | high polyreactivity |
| QVQLVESRGALVQAGRSLRLRCAASGLIFYLYAMGWYRQAPGKARELVAAINYSGGRTYYADSVKGRFTISRDNAKNTVYLQMNSLKPEDTAVYYCAAKSAGFQYNYWGHGTQVTVSS | high polyreactivity |
| QVQLVESRGGLDQAGGSLRLSCAASGSTFYMYAMGWYRQAPGKERELVASITSGDGSTYYADSVKGRFTISRDNAKNTVYLQMNSLKPEDTAVYYCNAVLEGWFYQYDYWGQGTQVTVSS | low polyreactivity |
| QVQLVESRGGLFQAGGSLRLSCAASGFIFRDNAMGWYRQAPGKERELVAAISKSGGRTYYADSVKGRFTISRDNAKNTVYLQMNSLKPEDTAVYYCAKVRYQGNGGYYWGQGTQVTVSS | high polyreactivity |
| QVQLVESRGGLVQAGGSHRLSCAASGSIIYGNTMGWYRQAPGKERELVAAIRRGGSTNYADSVKGRFTISRDNAKNTVYLQMNSMKPEDTAVYYCAKGHPSDFGYWGQGTQVNVSS | high polyreactivity |
| QVQLVESRGGLVQAGGSIRLSCAASGRIFVTYAMGWYRQAPGKERELVAVISWSGGSTYYADSVKGRFTISRDNAKNTVYLQMNSLKPEDTAVYYCARGLRKVRFDFWGQGTQVTVSS | low polyreactivity |
| QVQLVESRGGLVQAGGSLLLRCAASGSTITRNAMGWYRQAPGKERELVAAITSGGGTNYADSVKGRFTISRDNAKNTVYLQMNSLKPEDTAVYYCADRYWRFYTKRGYWGQGTQVTVSS | high polyreactivity |
| QVQLVESRGGLVQAGGSLRLICAASGRIFGRNAMGWYRQAPGKERELVAAISKRGGSTSYADSVKGRFTISRDNAKNTVYLQMNSLKPEDTAVYYCATSAPLVTSSGYGYWGQGTQVTVSS | high polyreactivity |
| QVQLVESRGGLVQAGGSLRLRCAASGSTFGYYAMGWYRQAPGKERELVAGISSGGTTKYADSVKGRFTISRDNEKNTVYLQMNSLKPEDTAVYYCAATVRVYDYWGQGTQVTLSS | high polyreactivity |
| QVQLVESRGGLVQAGGSLRLSCAASGFIFRYYAMGWYRQEPGKDSELVAAISWSGGSTYYADSVKGRFTISRDNAKNTVYLQMNSLKPEDTAVYYCAADRYAILFYAEDYWGQGTQVTVSS | low polyreactivity |
| QVQLVESRGGLVQAGGSLRLSCAASGFNFPHYAMGWYRQAPGKERELVAAISKSGDSTYYADSVKARFTISRDNAKNTVYLQMNSLKPEDTAVYYCARRGRSVRWKYDYWGQGTQVTVSS | low polyreactivity |
| QVQLVESRGGLVQAGGSLRLSCAASGFTFGWYAMGWYRQSPGKERELVAAITSGGSTKYADSVKGRFTISRDNAKNTVYLEMNSLKPEETAVYYCAAKRLGQYRPYTYGYWGQGTQVTVSS | high polyreactivity |
| QVQLVESRGGLVQAGGSLRLSCAASGFTFQRYAMGWYRQAPGKERELVAAINRSGGNTHYADSVKGRFTISRDNAKNTVYLQMNSLKPDDTAVYYCAVGTPASVGHYTYDYWGQGTQVTVSS | high polyreactivity |
| QVQLVESRGGLVQAGGSLRLSCAASGFTFVYYTMGWYRQAPGKERELVAAINWSGGSTYYADSVKGRFTISRDNAKNTVYLQMNSLKPEDTAVYYCAADTSYYPYEYWGQGTQVTVSS | high polyreactivity |
